From patent publication US20110117093A1 (published 2011) come the findings set out here.

Assay [1] deals with T1, membrane-bound B Lymphocyte Stimulator on P388 plasma membranes (mouse, UniProt Q9WU72 1-309).
T1 construct: whole, on cells
The experiment in a line: phage competition ELISA.

Assay [2] addresses T2, biotinylated B Lymphocyte Stimulator (human, soluble form) (human, UniProt Q9Y275 134-285, NHS-biotin labelled at a molar ratio of 20:1 biotin:B Lymphocyte Stimulator).
T2 construct: also called bio-B Lymphocyte Stimulator
The experiment in a line: purified scFv; inhibition of biotinylated BLyS binding to IM9 cells.

The target in another assay is T3, TNF-alpha (human, UniProt P01375 77-233).
T3 construct: also called TNFα; Tumour Necrosis Factor-alpha
T3 sequence (P01375 77-233 limits assumed): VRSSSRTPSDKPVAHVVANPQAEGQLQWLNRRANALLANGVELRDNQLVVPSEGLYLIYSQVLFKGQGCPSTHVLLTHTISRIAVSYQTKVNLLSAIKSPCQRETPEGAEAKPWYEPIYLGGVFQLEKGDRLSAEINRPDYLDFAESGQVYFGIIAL
The experiment in a line: phage ELISA.

Assay [3] has as its target T4, B Lymphocyte Stimulator, human, soluble form (human, UniProt Q9Y275 134-285).
T4 construct: also called BLyS; immobilized B Lymphocyte Stimulator
In words: phage ELISA. On the technique in general: ELISA stands for enzyme-linked immunosorbent assay.

Assay [4] has as its target T5, biotinylated B Lymphocyte Stimulator (soluble form) (human, UniProt Q9Y275 134-285, biotinylated with NHS-biotin (20:1 biotin:protein)).
T5 construct: The biotinylation protocol covers human or mouse protein; also called bio-B Lymphocyte Stimulator; free B Lymphocyte Stimulator
In words: phage scFv, IM9 receptor binding inhibition. How it is done:
Plates were washed three times in PBST and three times in PBS, tapped dry and 50 μl of streptavidin-Delfia (Wallac) was added to each well at 1:1000 dilution in the Manufacturer's assay buffer. The plates were then incubated at room temperature for 1 hour and washed six times in Delfia wash solution (Wallac). After tapping the plates dry, 100 μl per well of Delfia enhancement solution (Wallac) was added. The plates were gently tapped to encourage micelle formation, incubated at room temperature for 10 minutes, and fluorescence read on a Wallac 1420 workstation at […].
All of the unique phage scFvs from panel 2 were assessed for their ability to inhibit B Lymphocyte Stimulator binding to its cognate receptor on IM9 cells. The biotinylation of B Lymphocyte Stimulator, maintenance of IM9 cells and receptor binding inhibition assay were performed as described in Example 3.

T1 sequence (Q9WU72 whole entry): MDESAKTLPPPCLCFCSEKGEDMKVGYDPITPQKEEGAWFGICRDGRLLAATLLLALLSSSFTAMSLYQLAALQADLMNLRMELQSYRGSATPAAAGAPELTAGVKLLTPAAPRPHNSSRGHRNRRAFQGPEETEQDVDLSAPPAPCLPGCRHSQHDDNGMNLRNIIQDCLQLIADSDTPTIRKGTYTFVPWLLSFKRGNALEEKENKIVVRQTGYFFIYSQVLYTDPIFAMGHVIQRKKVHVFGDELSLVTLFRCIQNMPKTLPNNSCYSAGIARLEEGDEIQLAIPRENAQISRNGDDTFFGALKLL

B1: I080B01 (scFv)
scFv: QVQLVQSGAEVKKPGASVKVSCKASGYTFTNYYMHWVRQAPGQGLEWMGIINPRDVSTTYAQKFQGRATMTRDTSTSTVYMELNSLRSEDTAVYYCAREYSGYHYVEGGSYAMDVWGQGTMVTVSSGGGGSGGGGSGGGGSALSYVLTQPPSASGTPGQRVTITCSGSSSNIGNYYVNWYQQVSGTAPKLIIYRNNQRPSGVPDRFSGSKSGASASLAISGLRSEDEADYFCAAWDDSLREFVFGTGTKVTVLG
For the molecule B1, in assay [1], the binding result is given as “binds”.

B2: I068C06 (scFv)
scFv: EVQLVQSGAEVKKPGSSVKVSCKASGGTVSSRTISWVRQAPGQGLEWMGGSLPPSGAPIYAQKFQGRVAITADALTNTAFMELRSLKSDDTAVYYCARDQGRYLDLWGKGTLVTVSSGGGGSGGGGSGGGGSAQAVLTQPSSVSGAPGQRVTISCTGSRSNIGAGYDVHWYQQLPGTAPKLLIYGNSNRPSGVPDRFSGSKSGTSASLAITGLQADDEADYYCQSYDTSLRGLFGTGTKVTVLG
notes: also called I0068C06; 0068C06
What is called IC50 is the concentration at which inhibition is half-maximal. Regarding B2, the IC50 in assay [2] amounted to 62 nM.

B3: I018D07 (scFv)
scFv: GVQLVQSGPEVKKPGASVIVSCTASGYTFTSYGVSWVRQAPGQGLEWIGWISAHNGQTKYAEKFQGRVTMTRNTSISTAYMELSSLRSEDTAVYYCARDGSYDILTGYYIDNYMDVWGKGTMVTVSSGGGGSGGGGSGGGGSSELTQDPAVSVALGQTVRITCQGDSLRSYYTNWFQQKPGQAPLLVVYAKNKRPSGIPDRFSGSSSGNTASLTITGAQAEDEADYYCHSRDSSGNHVLFGGGTKLTVLG
On to B3, for which the binding result with TNF-alpha was “no binding”.

B4: I079F08 (scFv)
scFv: QMQLVQSGGGVVQPGRSLRLSCAASGFTFSSYGMHWVRQAPGKGLEWVAVISYDGSIKYYADSVKGRFTISRDNSKNTLYLQMNSLRAEDTAVYYCARYYYHSSGSDAFDIWGQGTLVTVPSGGGGSGGGGSGGGGSQSVLTQPPSASGTPGQRVTISCSGSSSNIGSNTVNWYQRLPGAAPQLLIYNNNQRPSGVPDRFSGSKSGTSASLAISGLQSEDEADYYCAAWDDSLNGWVFGGGTKLTVLG
As to B4, the binding result in assay [1] is “binds”.

B5: I026C04-K (scFv)
scFv: QVQLVQSGAEVKKPGSSVKVSCRASGGSFNKHAISWVRQAPGRGLEWMGGILPMYGTANYAQKFQGRVTITADKLTNTVYMDLSRLRYEDTAVYYCARELGLSIVGATTGALDMWGKGTLVTVSSGGGGSGGGGSGGGGSAQSVLTQPPSVSAAPGQKVTISCSGSSSNIGNNYVSWYQQIPGTAPKLLIYENNKRPSGIPDRFSGSKSGASATLDITGLQTGDEADYYCGTWHSSQVVFGGGTKLTVLG
Take B5: the binding result in assay [3] was “binds”.

B6: I026C04-K (scFv)
scFv: B5 scFv
In the case of B6, the binding result in assay [4] is “binds”.

B7: I079B04 (scFv)
scFv: EVQLVESGGGLVQPGGSLRLSCAASGFTFSDYAMSWVRQAPGKGLEWVSAISGSGGSTSYADSVKGRFTISRDNSKNTLYLQMNSLRAEDTAVYYCASLLSDYWGRGTTVTVSSGGGGSGGGGSGGGGSQSVLTQPASVSGSPGQSITISCTGTSSDVGGYNYVSWYQQHPGKAPKLMIYEGSKRPSGVSYRFSGSKSGNTASLTISGLQAEDEADYYCSSYTTRSTRVFGGGTKLTVLG
For the molecule B7, in assay [1], the binding result is listed as “binds”.
